Experimental data published in patent publication US20100204147A1, “Methods For Delivering Thymosin Beta 4, Analogues, Isoforms and Other Derivatives” (REGENERX BIOPHARMACEUTICALS, INC., priority 2003, published 2010).

How the values were obtained:
fibrin = molecular target: T1, fibrin (Homo sapiens, UniProt P02671); test: Factor XIIIa-mediated incorporation of FITC-labeled thymosin β4 into fibrin (spectrophotometric); format: biochemical; conditions: fibrinogen 9 μM, thymosin β4 30 μM, factor XIIIa with thrombin, 4 hours, 37° C.
T1 construct: purchased Enzyme Research Laboratories (South Bend, Ind.); host or cells: fibrin generated in the well or tube from the purchased fibrinogen with bovine thrombin
T1 sequence (P02671 36-629): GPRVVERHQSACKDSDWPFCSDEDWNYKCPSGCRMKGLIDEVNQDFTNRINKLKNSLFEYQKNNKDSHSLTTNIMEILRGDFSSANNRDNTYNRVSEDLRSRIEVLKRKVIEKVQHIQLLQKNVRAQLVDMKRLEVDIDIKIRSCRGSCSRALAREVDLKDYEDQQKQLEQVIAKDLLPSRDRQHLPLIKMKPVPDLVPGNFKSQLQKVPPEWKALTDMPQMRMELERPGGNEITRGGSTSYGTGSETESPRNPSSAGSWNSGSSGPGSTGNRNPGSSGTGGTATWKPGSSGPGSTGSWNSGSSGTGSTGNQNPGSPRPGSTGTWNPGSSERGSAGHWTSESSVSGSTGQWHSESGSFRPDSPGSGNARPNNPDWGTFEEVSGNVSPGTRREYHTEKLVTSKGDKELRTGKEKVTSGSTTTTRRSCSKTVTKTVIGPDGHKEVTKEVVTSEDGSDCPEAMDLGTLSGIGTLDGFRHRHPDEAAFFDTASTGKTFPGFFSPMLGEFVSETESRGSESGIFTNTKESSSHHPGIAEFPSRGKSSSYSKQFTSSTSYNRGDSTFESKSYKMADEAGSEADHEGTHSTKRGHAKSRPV
T1 sequence (P02675 45-491 partner): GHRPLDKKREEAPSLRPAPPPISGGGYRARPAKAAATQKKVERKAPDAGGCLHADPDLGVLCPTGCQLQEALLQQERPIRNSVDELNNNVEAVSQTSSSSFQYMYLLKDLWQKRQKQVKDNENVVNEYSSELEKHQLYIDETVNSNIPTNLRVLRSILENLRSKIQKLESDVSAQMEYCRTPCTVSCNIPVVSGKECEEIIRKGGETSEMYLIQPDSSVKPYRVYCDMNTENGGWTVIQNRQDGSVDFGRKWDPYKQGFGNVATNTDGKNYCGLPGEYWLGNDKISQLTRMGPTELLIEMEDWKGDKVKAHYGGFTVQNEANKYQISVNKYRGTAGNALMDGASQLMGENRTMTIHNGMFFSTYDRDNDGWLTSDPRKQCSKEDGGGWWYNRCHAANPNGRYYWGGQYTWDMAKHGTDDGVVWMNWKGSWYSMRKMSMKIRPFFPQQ
T1 sequence (P02679 27-437 isoform P02679-2 partner): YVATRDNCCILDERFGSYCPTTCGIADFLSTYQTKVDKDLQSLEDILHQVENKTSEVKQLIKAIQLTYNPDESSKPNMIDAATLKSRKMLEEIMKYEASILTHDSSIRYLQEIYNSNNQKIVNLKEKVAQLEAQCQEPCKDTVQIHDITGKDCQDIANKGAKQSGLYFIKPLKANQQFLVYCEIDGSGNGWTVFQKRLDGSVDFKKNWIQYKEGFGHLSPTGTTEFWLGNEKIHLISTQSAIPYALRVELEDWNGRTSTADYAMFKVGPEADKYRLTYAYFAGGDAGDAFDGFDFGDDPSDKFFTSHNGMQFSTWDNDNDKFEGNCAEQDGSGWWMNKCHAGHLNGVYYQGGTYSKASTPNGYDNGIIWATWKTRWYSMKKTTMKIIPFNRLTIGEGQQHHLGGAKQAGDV
Description: (§1) Reactions of incorporation of FITC-labeled and unlabeled thymosin β4 into fibrinogen and fibrin were performed in Eppendorf tubes containing a mixture of fibrinogen at 3 mg/mL (9 μM) and thymosin β4 or FITC-labeled thymosin β4 at […] (30 μM) in 100 μL TBS with 2.5 mM CaCl2. The reactions were initiated by addition of FXIIIa(Ca) or FXIIIa(Thr) to final concentration of 30 μg/mL. The final concentration of thrombin in the FXIIIa(Thr)-containing mixtures was made at 2.5 NIH u/mL, sufficient to rapidly form fibrin clot which was observed visually. The reactions with FITC-labeled thymosin β4 lasted for 4 hours at 37° C. in the dark and were stopped by heat inactiviation of the enzymes in boiling water for 5 min during fibrinogen and fibrin denatured and precipitated. The pellets were centrifuged and washed 3 times in TBS and then solubilized. The amounts of fibrin(ogen) and FITC-labeled thymosin β4 in the solubilized pellet were determined spectrophotomertrically using absorption molar coefficients E280,1%=15.0 and ε495=72,000 M^−1cm^−1, respectively. To prepare samples with unlabeled thymosin β4 for analysis by SDS-PAGE and Western blot the reaction mixtures at the indicated time were heat-inactivated as above and solubilized by addition of sample buffer (Invitrogen) containing SDS and reducing agent.

fibrinogen = molecular target: T2, fibrinogen (Homo sapiens, UniProt P02671); test: Factor XIIIa-mediated incorporation of FITC-labeled thymosin β4 into fibrinogen (spectrophotometric); format: biochemical; conditions: fibrinogen 9 μM, thymosin β4 30 μM, factor XIIIa, 4 hours, 37° C.
T2 construct: purchased Enzyme Research Laboratories (South Bend, Ind.)
T2 sequence (P02671 20-644 isoform P02671-2 limits assumed): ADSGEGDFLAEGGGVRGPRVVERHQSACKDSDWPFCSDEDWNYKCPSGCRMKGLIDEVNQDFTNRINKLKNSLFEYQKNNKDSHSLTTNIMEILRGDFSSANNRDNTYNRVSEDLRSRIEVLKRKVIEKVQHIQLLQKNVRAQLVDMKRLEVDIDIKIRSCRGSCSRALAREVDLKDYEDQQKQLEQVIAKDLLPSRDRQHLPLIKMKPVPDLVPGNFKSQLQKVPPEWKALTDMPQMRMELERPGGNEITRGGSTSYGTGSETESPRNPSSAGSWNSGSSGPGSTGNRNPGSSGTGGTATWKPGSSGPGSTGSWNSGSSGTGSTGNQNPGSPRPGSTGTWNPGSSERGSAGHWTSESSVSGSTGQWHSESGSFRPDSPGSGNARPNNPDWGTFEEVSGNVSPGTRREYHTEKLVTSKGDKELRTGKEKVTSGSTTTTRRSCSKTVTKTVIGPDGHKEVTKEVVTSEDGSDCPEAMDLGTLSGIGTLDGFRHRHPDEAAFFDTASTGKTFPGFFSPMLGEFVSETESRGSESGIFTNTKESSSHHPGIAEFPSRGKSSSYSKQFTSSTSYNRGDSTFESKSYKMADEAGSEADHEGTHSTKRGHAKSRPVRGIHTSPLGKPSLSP
T2 sequence (P02675 31-491 partner): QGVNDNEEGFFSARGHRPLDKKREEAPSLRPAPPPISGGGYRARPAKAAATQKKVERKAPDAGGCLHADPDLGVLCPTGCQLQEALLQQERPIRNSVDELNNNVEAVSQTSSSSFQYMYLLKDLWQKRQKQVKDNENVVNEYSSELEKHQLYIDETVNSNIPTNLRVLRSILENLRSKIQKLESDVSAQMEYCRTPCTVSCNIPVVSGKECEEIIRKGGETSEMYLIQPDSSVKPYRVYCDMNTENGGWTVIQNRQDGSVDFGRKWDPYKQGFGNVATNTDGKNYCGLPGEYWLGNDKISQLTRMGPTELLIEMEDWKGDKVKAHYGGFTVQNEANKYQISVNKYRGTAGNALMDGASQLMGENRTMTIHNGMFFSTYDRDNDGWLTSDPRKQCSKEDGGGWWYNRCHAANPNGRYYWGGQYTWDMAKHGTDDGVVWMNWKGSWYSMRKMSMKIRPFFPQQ
T2 sequence (P02679 27-437 isoform P02679-2 partner limits assumed): T1 sequence (P02679 27-437 isoform P02679-2 partner)
Description: as §1

degree of incorporation into fibrin (fibrin): ~0.4 moles per mole
degree of incorporation into fibrinogen (fibrinogen): about 0.2 moles per mole
Substance: FITC-thymosin β4: Fluorescence labeled thymosin β4 prepared by reaction with fluorescein isothiocyanate; 0.9 mole of FITC per mole of thymosin β4 [reference compound]
